Laboratory results reported in patent publication US20130157932A1, “NGAL AND URINARY TRACT INFECTION” (The Trustees of Columbia University in the City of New York, priority 2010, published 2013).
“Also recorded” adds a separate entry of the source.

What was measured:
[1] = system: UPEC iron acquisition genes; test: Real time PCR of UPEC iron acquisition genes; assay type: cell-based, Escherichia coli
From the text: To determine whether NGAL-Scn induced bacterial iron starvation, we measured a series of iron acquisition systems (9, 10) that are regulated by iron load via fur, including catecholates enterochelin (ent genes) and salmochelin (iro genes), the hydroxamate aerobactin (iuc genes) (11, 12), their receptors, fepA, iroN (13-15), and iutA, respectively, and additionally the heme scavenging chu receptors (15). […] In sum, uNGAL-Scn is expressed within hours of the onset of infection in vivo, and it is required to limit bacterial growth during the early phases of acute cystitis, most likely by blocking iron acquisition.
Total RNA was isolated with the mirVANA (for eukaryotic cells) or ribopure (for bacteria) RNA extraction kits (Ambion). First strand cDNA was synthesized with Superscript III (Invitrogen). Real-time PCR was performed in a 7500 Fast (Applied Biosystems) with a SYBR green supermix reagent (Fisher) and primers (Table 2) using β-actin (eukaryotic cells) and gapA (for bacteria) as internal controls. Fold amplification of transcripts was measured by the […] method.

[2] = system: uropathogenic Escherichia coli strain (CFT073); test: In vitro growth of UPEC CFT073 in M9 minimal medium or urine; assay type: cell-based; conditions: for bacterial growth after addition of FeCl3 to NGAL: M9 with NGAL 5 μM plus FeCl3 1 mM; for bacterial growth (optical density): M9 minimal medium; for growth of UPEC (OD600) in urine: human urine pH 5.8 (<pH 6.0), NGAL-Scn 5 μM
From the text: To investigate the relationship between NGAL and UPEC a pyelonephritogenic clinical isolate of uropathogenic Escherichia coli, CFT073, was aliquoted in 96 well plates containing M9 minimal medium supplemented with MgCl2 and glucose (see green hashed line: FIG. 1a), and bacterial growth was monitored by spectrophotometry.
Next, we tested whether NGAL-Scn was sufficient to inhibit urinary bacterial growth. We used UPECs grown to log phase in an iron restricted minimal media (M9), and then subsequently transferred the bacteria into urine or M9. Growth in human urine (<pH 6.0) was similar to growth in acidified M9 (<pH 6.0; FIG. 8C, D).
A single colony of CFT073 was selected from a plate and grown in M9 to log phase. Bacteria were pelleted and resuspended in either M9 or urine and monitored in a 96 well plate on a Tecan 200 Promicroplate reader for up to 72 h.

explanted bladders = test: NGAL-Scn secretion by bladders explanted from LPS treated mice; assay type: in vivo, mouse
Protocol: FIGS. 17A-B. C57/BL6 mice challenged with i.p. LPS (1 mg kg^−1) were explanted and media collected at 12 h and 24 hr of culture. FIG. 17A. […] FIG. 17B. NGAL-Scn was detected by Western blot.
Because both the bladder and kidney might contribute to uNGAL-Scn expression, we performed in situ hybridization 1 d post-TU challenge with UPEC (20-30 μl of 5×10^8 CFU ml^−1 i.e. ˜1×10^7 total CFU). We found Ngal-Scn message in collecting duct epithelia (FIG. 8H) (1) and in a thin luminal layer of bladder epithelia (FIG. 8I), but the majority of Ngal-Scn transcripts were found in the kidney (FIG. 8J). Moreover, in a controlled experiment, bladders explanted from mice treated with LPS (1 mg kg^−1) secreted approximately 10 ng per bladder over 12 h (FIG. 17), a small percentage of even a single collection of urine (250 ng ul^−1) from the treated mouse. In sum, while many types of genitourinary epithelia can express uNGAL-Scn in response to cystitis, the kidney was a dominant source of NGAL-Scn, even though kidney bacteria fell at, or below, our limit of detection (10^2 CFU kidney^−1; FIG. 18), and an inoculum less than 50 μl is not likely to generate gross vesico-ureteral reflux (VUR) (24).

[3] = system: Ngal expression in the kidney; test: Kidney Ngal expression (QPCR) after lipid A/LPS in reciprocal kidney cross-transplants; assay type: in vivo, mouse; conditions: 1 mg/kg, vs untreated cross transplant, n=3
Protocol: To determine whether uNGAL originated from the kidney in a TLR-dependent fashion, kidney transplantation between Tlr-4-mutant CH3/HeJ mice and wild type CH3/HeOuJ mice was performed. To evaluate the contribution of TLR signaling to NGAL expression a cross-transplant model using TLR mutants and systemic administration of LPS as a positive control was used. The CH3/HeJ kidneys from the LPS-insensitive mice were transplanted into CH3/HeOuJ LPS-sensitive (control) mouse bodies, and vice versa. Two weeks after graft maturation, when uNGAL and sCr had stabilized to normal values, a low dose of lipid A (1 mg/kg of body weight) was administered to induce Ngal expression in the kidney (FIG. 4a). […] It is not surprising that there was some Ngal induction in the knockout (KO) kidney because CH3/HeJ are partial KOs and it has also been previously shown that lipid A can signal through the MyD88-dependent pathway without a functioning Tlr4. […]
To identify elements of the pathway that detect UPEC, we evaluated whether IC could respond to a low dose of LPS (i.p. 1 mg kg^−1), a TLR4 agonist. […]
Surgical cross-transplants (1, 44) were monitored for two weeks until serum creatinine stabilized to 0.2 mg dL^−1 and uNGAL-Scn was undetectable prior to ip challenge with LPS (1 mg kg^−1).

NGAL-Scn expression = NGAL-Scn expression in mice after i.p. LPS; assay type: in vivo, mouse
Protocol: To identify elements of the pathway that detect UPEC, we evaluated whether IC could respond to a low dose of LPS (i.p. 1 mg kg^−1), a TLR4 agonist. […] To assess the role of TLR4 further, we inoculated LPS-responsive C3H/HeN (Lps“) and C3H/HeOuJ (Lps”) mice and LPS-defective C3H/HeJ (Lps^d) mice by TU with […] of 5×10^8 CFU ml^−1 (n=15). […] To confirm that kidney expressed TLR4 was critical, we cross-transplanted Lps^d kidneys into nephrectomized Lps^n controls and vice versa. […] Concurrently, TLR4 modulates the burden of urinary infection, by regulating the expression of NGAL-Scn in kidney epithelia.

[4] = system: Primary Ngal-Luciferase2/mCherry medullary cells; test: NGAL-Luc2 expression in primary Ngal-Luciferase2/mCherry kidney cells co-cultured with UPEC; assay type: cell-based, mouse; conditions: co-culture with UPEC 3 h; antibiotic added at the time of UPEC; n=3
Protocol: […] Alternatively, primary cells were treated with Lipid A and in some cases with NF-kB inhibitors, MG132 (Cayman Chemical), and Analogues 27, 30, and 3121 and Analogue 3022. The Luciferase substrate (Dual-Glo™ Luciferase Assay System; Promega) was added and luminescence from Luc2 and fluorescence from mC (excitation of 500-550 nm and emission of 575-650 nm) were imaged in a Xenogen IVIS optical imaging system.
Luc2/mC di-fusion reporter mice (8-12 weeks of age) were perfused with PBS and kidney cells were isolated with collagenase (2 mg ml^−1; Sigma), and cultured (1×10^5 well^−1 in 24-well plates; Falcon) in DMEM/F12 medium supplemented with 10% FBS, 1% penicillin-streptomycin, and 46 mg/l L-Valine for 24 h. […] Luciferase substrate (Dual-Glo Luciferase Assay System; Promega) was added and luminescence from Luc2 and fluorescence from mC (excitation 500-550 nm and emission 575-650 nm) were imaged in a Xenogen IVIS optical imaging system.

Enterochelin:Fe [5] = conditions: pH 4.0; cited from earlier work
Enterochelin:Fe [6] = test: Enterochelin:Fe capture by NGAL-Scn; assay type: binding; conditions: 3:1 Enterochelin:Fe::Ngal-Scn ratio; washed 5 times on 10 k filter
Protocol: . IPTG (0.2 mM final concentration) was added for 5 h. Bacterial pellets were lysed by sonication in lysis buffer, followed by Triton-X 100 (0.5%) treatment for 30 min on ice. Supernatant was collected after high speed centrifugation and filter sterilized (0.45 μm). NGAL-Scn-GST was purified by binding to Glutathione Sepharose beads followed by cleavage of the GST tag with thrombin. Released protein was fractionated by a Sephacryl S100HR column. Enterochelin:Fe capture by NGAL-Scn was tested (Emc Microcollections gmbh) at a 3:1 Enterochelin:Fe::Ngal-Scn ratio.

[7] = M9 with iron added to match urinary concentration (806 nM)

## CC(=O)N(O)CCCCCNC(=O)CCC(=O)N(O)CCCCCNC(=O)CCC(=O)N(O)CCCCCN [DFO, reference compound]
[1]; M9 media, DFO 50 μM or 5 μM, n=5
  UPEC iron acquisition gene expression with DFO: modulated

## [Cl][Fe]([Cl])[Cl] [FeCl3, reference compound]
[2]
  bacterial growth after addition of FeCl3 to NGAL: rescued
[2]; listed as iron
  bacterial growth after addition of FeCl3 to NGAL: reversed

## Lipid A [LPS]
Explanted bladders; C57/BL6, i.p. LPS 1 mg kg^−1, 12 h of culture, vs control, n=10
  NGAL-Scn upregulation in bladder explant media at 12 h: 2 fold
Explanted bladders; C57/BL6, i.p. LPS 1 mg kg^−1, 24 h of culture, vs control, n=10
  NGAL-Scn upregulation in bladder explant media at 24 h: 5 fold
Explanted bladders; LPS 1 mg kg^−1, over 12 h
  NGAL-Scn secreted by explanted bladder: approximately 10 ng per bladder
[3]
  increase in Ngal expression, Tlr-4-mutant (Lps^d) kidney in wild type (Lps^n) host: 4.5±2.6 fold
  increase in Ngal expression, wild type (Lps^n) kidney in Tlr-4-mutant (Lps^d) host: 15.6±2.3 fold
NGAL-Scn expression; LPS 1 mg kg^−1
  NGAL-Scn in a single collection of urine from the treated mouse: 250 ng/µL
NGAL-Scn expression; i.p. LPS 1 mg kg^−1, in situ hybridization
  NGAL-Scn expression in intercalated cells / kidney medulla: induced NGAL-Scn expression; also recorded: detected in alternating cells

## gentamicin
[4]
  NGAL-Luc2 expression in response to UPEC: blunted

B1: Neutrophil Gelatinase Associated Lipocalin (NGAL)-Siderocalin (Scn) (protein, UniProt P11672 21-200, looked up)
Neutrophil …: QDSTQNLIPAPSLLTVPLQPDFRSDQFRGRWYVVGLAGNAVQKKTEGSFTMYSTIYELQENNSYNVTSILVRDQDQGCRYWIRTFVPSSRAGQFTLGNMHRYPQVQSYNVQVATTDYNQFAMVFFRKTSENKQYFKITLYGRTKELSPELKERFTRFAKSLGLKDDNIIFSVPTDQCIDN
modifications: recombinant, E. coli
notes: Recombinant mouse NGAL-Scn protein produced in BL21 E. coli
[1]; [7]
  EntF activation: 2410 fold
  iucD activation: 16970 fold
  iutA activation: 1.9 fold
[1]; UPEC in M9, NGAL-Scn 5 μM
  chuS upregulation: 26.9 fold
  entA upregulation: 396.2 fold
  entF upregulation: 36294.5 fold
  fepA upregulation: 18.0 fold
  iroN upregulation: 207 fold
  iucA upregulation: 12568.5 fold
  iucD upregulation: 19.0 fold
  iutA upregulation: 13.4 fold
[1]; UPEC in M9, NGAL-Scn 5 μM for 30 min, n=5
  entA, entF, and iha gene expression: upregulation
Enterochelin:Fe [5]
  enterochelin binding at low pH: binds enterochelin even at pH 4.0
[2]; NGAL 5 μM
  bacterial growth (optical density): greatly inhibited
[2]; NGAL 5 μM, listed as mouse (m) NGAL
  bacterial growth (optical density): significantly inhibited
[2]; NGAL 5 μM, listed as uNGAL
  bacterial growth (optical density): inhibit growth
[2]; M9 pH 5.8 (typical urine pH), NGAL 5 μM, n=3
  growth of UPEC in M9 at pH 5.8: robust inhibition
[2]; M9 pH 7, NGAL 5 μM, n=3
  growth of UPEC in M9 at pH 7: reduced (and variable) growth inhibition
[2]; n=3
  growth of UPEC (OD600) in urine: greatly inhibited
[2]; n=3, listed as uNGAL-Scn
  growth of UPEC (OD600) in urine: inhibited the growth
Enterochelin:Fe [6]
  Enterochelin:Fe binding by coloration: binding detected
